Test results taken from patent US20190262327A1 (AstraZeneca / MedImmune, published 2019).
Where a chain is given by its changes, count along the chain named. Values belong to the binder of their own block, whether it stands above or below them.

Tests used:
[1] = target: T1, biotinylated synthetic human Amyloid beta 1-42 peptide (human, UniProt P05067 672-713, biotinylated (N-terminal biotin in Example 4)); test: HTRF epitope competition; purified scFv titrated; competitor Abet0144-GL IgG1-TM
T1 construct: domain: Amyloid beta 1-42 peptide; Numbers 1-42 count on the Amyloid beta peptide, not on APP; also called biotinylated human Amyloid beta 1-42; N-terminal biotin Abeta 1-42
Protocol: (§1) Two thousand and twenty four scFv chosen at random from selection rounds 3 and 4 of the targeted mutagenesis approach described in section 1.2 were expressed in bacteria to produce unpurified periplasmic scFv.
(§2) One thousand six hundred and seventy two scFv, randomly selected from selection rounds 9 to 11, were screened in an epitope competition assay as described in section 1.3.
(§3) Where the assay was performed more than once, the absolute range of IC₅₀ values is provided.

[2] = target: T1, biotinylated synthetic human Amyloid …; test: SPR (ProteOn); biotinylated peptide on streptavidin chip, scFv in solution
Protocol: These experiments were performed essentially as described by Karlsson et al. (Karlsson et al., 1991).
The chip surface was regenerated between cycles by a single 60 second injection of 10 mM Glycine pH 2.0 to remove scFv bound to the peptide.
Each scFv at 100-200 nM was sequentially passed over the peptide surface for a sufficient amount of time to observe sensorgrams that could be fitted to an appropriate binding model with confidence. An irrelevant scFv blank was subtracted from the main dataset to reduce the impact of any buffer artefacts or non-specific binding effects. An appropriate binding model was then fitted to the data.

[3] = target: T1, biotinylated synthetic human Amyloid …; test: HTRF epitope competition; purified scFv titrated; competitor Abet0144-GL IgG1-TM; range of repeats
Protocol: as §1, §2, §3

T1 sequence (P05067 672-713 limits assumed): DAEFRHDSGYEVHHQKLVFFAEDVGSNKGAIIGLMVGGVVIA

IC50 [1]: 0.48 nM
Kd [2]: 0.188 nM
koff [2]: 2.25e-05 s⁻¹
kon [2]: 120000 M⁻¹ s⁻¹
B1: Abet0343 scFv (scFv, V domains shown, not shown: small tags and cut ends)
VH: EVQLLESGGGLVQPGGSLRLSCAASGFNFNHQVMWWVRQAPGKGLEWVSVIGKTNENIAYADSVKGRFTISRDNSKNTLYLQMNSLRAEDTAVYYCAREWMDHSRPYYYYGMDVWGQGTLVTVSS
VL: QSVLTQPPSVSVSPGQTASITCSGHNLEDKFASWYQQKSGQSPVLVIYRDDKRPSGIPERFSASNSGHTATLTISGTQATDEADYYCSSQDTVTRVFGGGTKLTVL
notes: Purified scFv expressed in E. coli

IC50 [1]: 0.97 nM
Kd [2]: 0.472 nM
koff [2]: 6.41e-05 s⁻¹
kon [2]: 136000 M⁻¹ s⁻¹
B2: Abet0378 scFv (scFv, V domains shown, not shown: small tags and cut ends)
VH: B1 VH with N28P, N30E, H31T, Q32D, V33I, K53T, T54N, N55T, E56D, I58V
VL: B1 VL with Q1S, S2Y, V3E, S39P

IC50 [1]: 0.84 nM
Kd [2]: 0.483 nM
koff [2]: 8.92e-05 s⁻¹
kon [2]: 185000 M⁻¹ s⁻¹
B3: Abet0373 scFv (scFv, V domains shown, not shown: small tags and cut ends)
VH: EVQLLESGGGLVQPGGSLRLSCVASGFDFERSVMWWVRQAPGKRLEWVSVIGSGKTNITYADSVKGRFTISRDNSKNTLYLQMNSLRAEDTAVYYCAREWMDHSRPYYYYGMDVWGQGTLVTVSS
VL: B1 VL with Q1S, S2Y, V3E, S39P, G56E
notes: as for B1

IC50 [1]: 0.69 nM
Kd [2]: 0.327 nM
koff [2]: 4.39e-05 s⁻¹
kon [2]: 134000 M⁻¹ s⁻¹
B4: Abet0379 scFv (scFv, V domains shown, not shown: small tags and cut ends)
VH: EVQLLESGGGLVQPGGSLRLSCAASGFDFAETPLWWVRQAPGERLEWVSVIGSNQNKTAYADSVKGRFTISRDNSKDTLYLQMNSLRAEDTAVYYCAREWMDHSRPYYYYGMDVWGQGTLVTVSS
VL: B1 VL with E82G, S88A, S89T, T92N, V93F
notes: as for B1

IC50 [1]: 0.47 nM
Kd [2]: 0.241 nM
koff [2]: 5.14e-05 s⁻¹
kon [2]: 213000 M⁻¹ s⁻¹
B5: Abet0381 scFv (scFv, V domains shown, not shown: small tags and cut ends)
VH: EVQLLESGGGLVQPGGSLRLSCAASSPSFPRETMWWVRQAPGKGLEWVSVIGTQPNRLTYADSVKGRFTISRDNSKNTLYLQMNSLRAEDTAVYYCAREWMDHSRPYYYYGIDVWGQGTLVTVSP
VL: B1 VL with Q1S, S2Y, V3E, V12A, A32V, S39P, D84N, V96A
notes: as for B1

IC50 [1]: 0.75 nM
Kd [2]: 0.217 nM
koff [2]: 3.94e-05 s⁻¹
kon [2]: 181000 M⁻¹ s⁻¹
B6: Abet0383 scFv (scFv, V domains shown, not shown: small tags and cut ends)
VH: EVQLLESGGGLVQPGGSLKLSCAASGFTFDWYPMWWVRQAPGKRLEWISVIGADNAKIAYADSVKGRFTISRDNSKNTLYLQMNSLRAEDTAVYYCAREWMGHSRPYYYYGMDVWGQGTPVTVSS
VL: B1 VL with Q1S, S2Y, V3E, E28G, S39P
notes: as for B1

IC50 [1]: 0.55 nM
Kd [2]: 0.482 nM
koff [2]: 9e-05 s⁻¹
kon [2]: 187000 M⁻¹ s⁻¹
B7: Abet0368 scFv (scFv, V domains shown, not shown: small tags and cut ends)
VH: EVQLLESGGGLVQPGGSLRLSCAASGFDFGPSPMWWVRQAPGKGLEWVSVIGKDTQNSTYADSVKGRFTISRDNSKDTLYLQMNSLKAEDTAVYYCAREWMDHSRPYYYYGMDVWGQGTLVTVSS
VL: B1 VL with Q1S, S2Y, V3E, A32T, T77A
notes: as for B1

IC50 [1]: 0.55 nM
Kd [2]: 0.729 nM
koff [2]: 0.000103 s⁻¹
kon [2]: 141000 M⁻¹ s⁻¹
B8: Abet0328 scFv (scFv, V domains shown, not shown: small tags and cut ends)
VH: EVQLLESGGGLVQPGGSLRLSCAASRDPFKADTMWWVRQAPRKRLEWVSVIGAHTTNSAYADSVKGRFTISRDNSKNTLYLQMNSLRAEDTAVYYCAREWMDRSRPYYYYGMDVWGQGTLVTVSS
VL: B1 VL with Q1S, S2Y, V3E, A18V, H25R, S39P, I57V
notes: as for B1

IC50 [1]: 0.77 nM
Kd [2]: 0.739 nM
koff [2]: 5.73e-05 s⁻¹
kon [2]: 77500 M⁻¹ s⁻¹
B9: Abet0344 scFv (scFv, V domains shown, not shown: small tags and cut ends)
VH: EVQLLESGGGLVQPGGSLSLSCAASGFTFSVYTMWWVRQAPGKGLEWVSVIGGNETRKAYADSVKGRFTISRDNSKNRLYLQMNSLRAEDTAVYYCAREWMDHSRPYYYYGMDVWGQGTLVTVSS
VL: B1 VL with S88A, S89T, T92N, V93F
notes: as for B1

IC50 [1]: 0.76 nM
Kd [2]: 0.651 nM
koff [2]: 7.76e-05 s⁻¹
kon [2]: 119000 M⁻¹ s⁻¹
B10: Abet0370 scFv (scFv, V domains shown, not shown: small tags and cut ends)
VH: B1 VH with N28H, N30P, H31M, Q32S, V33A, K53E, N55P, N57R, I58Q, N77S
VL: SYELTQPPSVSVSPGQTASITCTTPHFNSKFASWYQQKPGQSPVLVIYRDDKRPSGIPERFSASNSGHTATLTISGTQAMDEADYYCQAQDSTTRVFGGGTRLTVL
notes: as for B1

IC50 [1]: 0.5 nM
Kd [2]: 0.762 nM
koff [2]: 0.000272 s⁻¹
kon [2]: 357000 M⁻¹ s⁻¹
IC50 [3]: 0.46 to 0.53 nM
B11: Abet0371 scFv (scFv, V domains shown, not shown: small tags and cut ends)
VH: EVQLSESGGGLVQPGGSLRLSCAASHDAFPFDTMWWVRQAPGKGLEWVSVIGSSGGTTVYADSVKGRFTVSRDNSKNTLYLQMNSLRAEDTAVYYCAREWMDHSRPYYYYGMDVWGQGTLVTVSS
VL: B1 VL with Q1S, S2Y, V3E, L27I, E28S, D29S, K30S, F31W, A32V, S39P
notes: as for B1

IC50 [1]: 0.63 nM
Kd [2]: 0.701 nM
koff [2]: 0.000138 s⁻¹
kon [2]: 197000 M⁻¹ s⁻¹
B12: Abet0329 scFv (scFv, V domains shown, not shown: small tags and cut ends)
VH: EVQLLESGGGLVQPGGSLRLSCAASTFNLKRETMWWVRQAPGKGLEWVSVIGSHQERTSYADSVKGRFTISRDNSKNTLYLQMNSLRAEDTAVYYCAREWMDHSRPYYYYGMDVWGQGTLVTVSS
VL: B1 VL with Q1S, S2Y, V3E, L27V, E28S, F31W, A32M, S33T, S39P
notes: as for B1

IC50 [1]: 0.59 nM
Kd [2]: 0.421 nM
koff [2]: 5.73e-05 s⁻¹
kon [2]: 136000 M⁻¹ s⁻¹
B13: Abet0342 scFv (scFv, V domains shown, not shown: small tags and cut ends)
VH: B7 VH with G30R, P31R, P33V, K53A, D54Q, S58K, T59A, D77N, K87R
VL: B10 VL with T23S, T24G, P25H, H26N, F27L, N28E, S29D, H68D, R102K
notes: as for B1

IC50 [1]: 0.68 nM
Kd [2]: 0.391 nM
koff [2]: 0.000129 s⁻¹
kon [2]: 329000 M⁻¹ s⁻¹
IC50 [3]: 0.52 to 0.76 nM
B14: Abet0319 scFv (scFv, V domains shown, not shown: small tags and cut ends)
VH: B11 VH with S5L, H26V, D27S, A28V, F29Y, P30N, F31K, V70I
VL: B1 VL with Q1S, S2Y, V3E, L27I, E28M, F31W, A32V, S39P, Q41R, V44A
notes: as for B1

IC50 [1]: 0.38 nM
Kd [2]: 0.724 nM
koff [2]: 0.000176 s⁻¹
kon [2]: 243000 M⁻¹ s⁻¹
IC50 [3]: 0.26 to 0.49 nM
B15: Abet0372 scFv (scFv, V domains shown, not shown: small tags and cut ends)
VH: EVQLLESGGGLVQPGGSLRLSCAASSDMFNIETMWWVRQAPGKGLEWVSVIGKGMNNVSYADSVKGRFTISRDNSKNTLYLQMNSLRAEDTAVYYCAREWMDHSRPYYYYGMDVWGQGTLVTVSS
VL: B1 VL with Q1S, S2Y, V3E, S39P
notes: as for B1

IC50 [1]: 0.91 nM
Kd [2]: 0.391 nM
koff [2]: 0.000129 s⁻¹
kon [2]: 329000 M⁻¹ s⁻¹
B16: Abet0332 scFv (scFv, V domains shown, not shown: small tags and cut ends)
VH: EVQLLESGGGLVQPGESLRLSCAASSDSWHTDIMWWVRQAPGKRLEWVSVIGNSNKKIAYADSVKGRFTISRDNSKNTLYLQMNSLRAEDTAVYYCAREWMDHSRPYYYYGMDVWGQGTLVTVSS
VL: SYELTQPPSVSVSPGQTASITCSGHNIGAKWVSWYQQKPGQSPILVIYRDDKRPSGIPERFSASNSGHTATLTISGTQATDEADYYCQAQGQVTRSFGGGTKLTVL
notes: as for B1
